The values that follow come from PMC5587591, “Enoyl-CoA hydratase-1 regulates mTOR signaling and apoptosis by sensing nutrients” (Nature Communications, 2017).

Residue numbers refer to the chain shown, from its start. Names may count otherwise.

One data set addresses T1, SIRT3 (Homo sapiens, UniProt Q9NTG7).
T1 construct: recombinant from E. coli (DE3)
T1 sequence (Q9NTG7 102-399): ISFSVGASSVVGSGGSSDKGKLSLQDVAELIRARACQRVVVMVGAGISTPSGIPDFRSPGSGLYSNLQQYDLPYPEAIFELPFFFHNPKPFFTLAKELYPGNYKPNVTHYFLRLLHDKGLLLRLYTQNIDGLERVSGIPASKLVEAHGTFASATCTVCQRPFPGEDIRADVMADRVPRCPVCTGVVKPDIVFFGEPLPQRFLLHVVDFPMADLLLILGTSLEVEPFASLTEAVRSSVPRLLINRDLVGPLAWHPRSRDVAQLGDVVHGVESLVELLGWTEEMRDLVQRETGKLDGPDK
The data set can be described thus: deacetylation of AcK101 ECHS1 peptide, MS. It counts as biochemical. Particulars: 1 mM NAD+, 30 mM HEPES pH 7.0, 37 °C; acetylated 9-residue ECHS1 peptide as co-substrate.

Substrate in the data set “purified protein”: C/C=C/C(=O)SCCNC(=O)CCNC(=O)[C@H](O)C(C)(C)COP(=O)(O)OP(=O)(O)OC[C@H]1O[C@@H](n2cnc3c(N)ncnc32)[C@H](O)[C@@H]1OP(=O)(O)O
Nature of the data set: purified protein. As to conditions: 50 mM Tris-HCl pH 8.0. It counts as biochemical, Homo sapiens.

In the case of `NC(=O)c1ccc[n+]([C@@H]2O[C@H](COP(=O)(O)OP(=O)(O)OC[C@H]3O[C@@H](n4cnc5c(N)ncnc54)[C@H](O)[C@@H]3O)[C@@H](O)[C@H]2O)c1` [NAD^+], on SIRT3, the “deacetylation of AcK101 ECHS1 peptide, MS” value is recorded as “SIRT3 deacetylated synthetic AcK101-containing ECHS1 peptide in an NAD^+-dependent manner in vitro”.

B1: ECHS1 (enoyl-CoA hydratase-1) (Homo sapiens) (protein)
chain: ASGANFEYIIAEKRGKNNTVGLIQLNRPKALNALCDGLIDELNQALKTFEEDPAVGAIVLTGGDKAFAAGADIKEMQNLSFQDCYSSKFLKHWDHLTQVKKPVIAAVNGYAFGGGCELAMMCDIIYAGEKAQFAQPEILIGTIPGAGGTQRLTRAVGKSLAMEMVLTGDRISAQDAKQAGLVSKICPVETLVEEAIQCAEKIASNSKIVVAMAKESVNAAFEMTLTEGSKLEKKLFYSTFATDDRKEGMTAFVEKRKANFKDQ
For B1, the Km in “purified protein” came to 360 ± 180 µM.

B2: ECHS1 (enoyl-CoA hydratase-1) (Homo sapiens; K101Q) (protein)
chain: B1 chain with K74Q
Turning to B2, in the data set “purified protein”, the Michaelis constant (Km) amounted to 740 ± 430 µM.

B3: ECHS1 (enoyl-CoA hydratase-1) (Homo sapiens; K101R) (protein)
chain: B1 chain with K74R
Take B3: the Km in “purified protein” was 300 ± 80 µM.

Usually Km stands for the concentration of substrate that gives half-maximal velocity.
